Tests used:
[1] = biological target: 1065 toxin (IPF_1065, RelE/ParE-like toxin), C-terminally His-tagged (Microcystis aeruginosa PCC 7806); experiment: SEC-MALS
[2] = biological target: 1067 antitoxin (IPF_1067, ParD-like antitoxin), C-terminally His-tagged (Microcystis aeruginosa PCC 7806); experiment: […]; 20 mM HEPES pH 7.4, 150 mM NaCl, room temperature

Question: How did the stoichiometry N (antitoxin per toxin) [1] turn out when “1067 antitoxin (IPF_1067), non-tagged, coexpressed with the 1065 toxin (natural protein)” was run?
Answer: The stoichiometry N (antitoxin per toxin) was 2.

Question: With “1067 antitoxin (IPF_1067, ParD-like antitoxin), C-terminally His-tagged (natural protein)” as the substance, how does the stoichiometry N [2] read?
Answer: The stoichiometry N was 2.

Reference: PMC7935541
